Assay results reported in patent US20170267768A1 (University of California, published 2017).
Residue numbers refer to the chain shown, from its start.

B1: scFv-8C (scFv)
scFv: QVQLVQSGGGLVQPGGSLRLSCAASGFTFSSYAMHWVRQAPGKGLEWVTVISPSGHNTYYADSVKGRFTISRDNSKNTLYLQMNSLRAEDTAVYYCARASVGATGPFDIWGQGTLVTVSSASTGGGGSGGGGSGGGGSGGGGSSSELTQPPSVSVAPGQTVTITCQGDSLRSYYASWYQQKPGTAPKLLIYGENNRPSGVPDRFSGSSSGTSASLTITGAQAEDEADYYCNSRDSSGTHLTVFGGGTKLTVLGGGSGGC
notes: also called clone 8
B2: scFv-16C (scFv)
scFv: B1 scFv with T49S, P53N, S54N
B3: scFv-19C (scFv)
scFv: B1 scFv with T49S, S54P
B4: scFv-13C (scFv)
scFv: B1 scFv with S54T, H56A
notes: also called clone 13
B5: scFv-9C (scFv)
scFv: B1 scFv with S54N
notes: also called clone 9
B6: scFv-19 (scFv)
scFv: QVQLVQSGGGLVQPGGSLRLSCAASGFTFSSYAMHWVRQAPGKGLEWVSVISPPGHNTYYADSVKGRFTISRDNSKNTLYLQMNSLRAEDTAVYYCARASVGATGPFDIWGQGTLVTVSSASTGGGGSGGGGSGGGGSGGGGSSSELTQPPSVSVAPGQTVTITCQGDSLRSYYASWYQQKPGTAPKLLIYGENNRPSGVPDRFSGSSSGTSASLTITGAQAEDEADYYCNSRDSSGTHLTVFGGGTKLTVLG
B7: scFv-3 (scFv)
scFv: B6 scFv with S49T, P54D
B8: scFv-1 (scFv)
scFv: B6 scFv with P54A, H56N
B9: scFv-13 (scFv)
scFv: B6 scFv with S49T, P54T, H56A
B10: scFv-9 (scFv)
scFv: B6 scFv with S49T, P54N
B11: scFv-2 (scFv)
scFv: B6 scFv with P54A, H56R, T58K
B12: scFv-20 (scFv)
scFv: B6 scFv with S49T, P53H, P54D, H56T
B13: scFv-18 (scFv)
scFv: B6 scFv with P54A, H56T
B14: scFv-10 (scFv)
scFv: B6 scFv with V50A
B15: scFv-22 (scFv)
scFv: B6 scFv with S49T, P54G, H56P, T58K
B16: scFv-7 (scFv)
scFv: B6 scFv with P54A, H56P
B17: scFv-21 (scFv)
scFv: B6 scFv with S49T, P53R, P54H, H56N, T58K
B18: scFv-14 (scFv)
scFv: B6 scFv with S49T, P54A, H56P, T58K
B19: scFv-16 (scFv)
scFv: B6 scFv with P53N, P54N
B20: scFv-15 (scFv)
scFv: B6 scFv with P54H, H56S, T58K
B21: scFv-8 (scFv)
scFv: B6 scFv with S49T, P54S
B22: scFv-4 (scFv)
scFv: B6 scFv with S49T, P54H, H56R, T58K
B23: scFv-17 (scFv)
scFv: B6 scFv with S49T, H56S, T58K
B24: scFv-5 (scFv)
scFv: B6 scFv with P53R, P54R, H56D, T58K
B25: scFv-11 (scFv)
scFv: B6 scFv with S49A, P53H, P54H, H56S
B26: scFv-6 (scFv)
scFv: B6 scFv with P53N, P54N, T58K

Experiments:
[1] = molecular target: T1, His6-tagged recombinant human EphA2 protein (human, UniProt P29317 25-534); experiment: BLI (Octet Red 96); His6-EphA2 on anti-His sensors; scFv-PEG-DSPE conjugate at 2.5 ug/ml after thermal stress
T1 construct: also called his-tagged recombinant, human EphA2; human EphA2 with c-terminal His6
T1 sequence (P29317 25-534 limits assumed): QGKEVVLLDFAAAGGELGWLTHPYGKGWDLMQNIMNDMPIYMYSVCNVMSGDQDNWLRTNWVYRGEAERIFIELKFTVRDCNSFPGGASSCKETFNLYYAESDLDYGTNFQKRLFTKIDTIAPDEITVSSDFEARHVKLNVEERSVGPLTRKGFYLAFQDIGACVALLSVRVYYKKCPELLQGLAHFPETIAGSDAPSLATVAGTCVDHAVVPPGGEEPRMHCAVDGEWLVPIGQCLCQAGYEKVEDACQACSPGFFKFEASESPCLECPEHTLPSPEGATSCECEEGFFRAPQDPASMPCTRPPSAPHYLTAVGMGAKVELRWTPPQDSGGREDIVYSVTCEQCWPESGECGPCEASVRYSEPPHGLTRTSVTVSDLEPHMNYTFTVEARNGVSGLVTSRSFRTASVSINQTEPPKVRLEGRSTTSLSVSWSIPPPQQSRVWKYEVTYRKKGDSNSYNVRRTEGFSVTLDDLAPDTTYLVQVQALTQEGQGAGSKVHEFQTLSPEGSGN
From the text: (§1) A nucleic acid encoding human EphA2 with c-terminal His6 appended was cloned into expression vector pCEP4 (Invitrogen® # V044-50) and transiently expressed in FreeStyle™ 293 cells (Invitrogen® #K900001) following polyethylenenimine transfection. The His6-tagged recombinant human EphA2 protein was purified from the cell culture medium using Ni-NTA Sepharose™ resin (Quiagen®, USA). Anti-His sensors for the fortéBIO® Octet Red 96 system (fortéBIO®-Pall® #18-5116) were coated with his-tagged recombinant, human EphA2 at concentration of 10 μg/ml protein for 300 sec, and a background run was carried out in PBS for 60 sec. For scFv-PEG-DSPE conjugates, the sensors were then incubated with 2.5 μg/ml (Study 1) or 4.0 μg/ml (Study 2) of the conjugate in PBS, pH 7.4, and the slopes of association curves were determined between 3-13 seconds of incubation, corrected for the buffer-only background, and compared across the variants. ScFv-linked liposomes were incubated with the sensors in PBS at 0.025 mM of liposome phospholipid, the slopes of the association curves were determined between 3-20 seconds of incubation, corrected for the buffer-only background, and compared across the variants.
(§2) Results are shown below in Table 6, in which column A gives scFv identifiers; column B indicates percent yield of scFv/lipopolymer linker conjugates; column C gives percent scFv-conjugate (not liposome-bound) EphA2 binding on-rate; column D gives percent scFv-conjugated-liposome EphA2 binding on-rate; and columns E (Study 1) and F (study 2) give percent antigen binding on-rate remaining in the scFv-conjugate (not liposome-bound) following thermal stress.

[2] = molecular target: T1, His6-tagged recombinant human EphA2 …; experiment: BLI (Octet Red 96); His6-EphA2 on anti-His sensors; scFv-PEG-DSPE conjugate at 4.0 ug/ml after thermal stress
From the text: as §1, §2

[3] = molecular target: T1, His6-tagged recombinant human EphA2 …; experiment: BLI (Octet Red 96); His6-EphA2 on anti-His sensors; slope of association curve of scFv-PEG-DSPE conjugate; TS1C printed as 100
From the text: as §1, §2

[4] = molecular target: T1, His6-tagged recombinant human EphA2 …; experiment: BLI (Octet Red 96); His6-EphA2 on anti-His sensors; slope of association curve of scFv-linked liposomes at 0.025 mM phospholipid; TS1C printed as 100
From the text: as §1, §2

[5] = molecular target: T2, human EphA2 on OVCAR-3 and U-251 cells (human, UniProt P29317 24-976); experiment: CLIA: scFv-decorated fluorescent NTA(Ni) liposomes on EphA2-expressing cells, FACS
T2 construct: whole, on cells; also called EphA2 receptors
T2 sequence (P29317 24-976): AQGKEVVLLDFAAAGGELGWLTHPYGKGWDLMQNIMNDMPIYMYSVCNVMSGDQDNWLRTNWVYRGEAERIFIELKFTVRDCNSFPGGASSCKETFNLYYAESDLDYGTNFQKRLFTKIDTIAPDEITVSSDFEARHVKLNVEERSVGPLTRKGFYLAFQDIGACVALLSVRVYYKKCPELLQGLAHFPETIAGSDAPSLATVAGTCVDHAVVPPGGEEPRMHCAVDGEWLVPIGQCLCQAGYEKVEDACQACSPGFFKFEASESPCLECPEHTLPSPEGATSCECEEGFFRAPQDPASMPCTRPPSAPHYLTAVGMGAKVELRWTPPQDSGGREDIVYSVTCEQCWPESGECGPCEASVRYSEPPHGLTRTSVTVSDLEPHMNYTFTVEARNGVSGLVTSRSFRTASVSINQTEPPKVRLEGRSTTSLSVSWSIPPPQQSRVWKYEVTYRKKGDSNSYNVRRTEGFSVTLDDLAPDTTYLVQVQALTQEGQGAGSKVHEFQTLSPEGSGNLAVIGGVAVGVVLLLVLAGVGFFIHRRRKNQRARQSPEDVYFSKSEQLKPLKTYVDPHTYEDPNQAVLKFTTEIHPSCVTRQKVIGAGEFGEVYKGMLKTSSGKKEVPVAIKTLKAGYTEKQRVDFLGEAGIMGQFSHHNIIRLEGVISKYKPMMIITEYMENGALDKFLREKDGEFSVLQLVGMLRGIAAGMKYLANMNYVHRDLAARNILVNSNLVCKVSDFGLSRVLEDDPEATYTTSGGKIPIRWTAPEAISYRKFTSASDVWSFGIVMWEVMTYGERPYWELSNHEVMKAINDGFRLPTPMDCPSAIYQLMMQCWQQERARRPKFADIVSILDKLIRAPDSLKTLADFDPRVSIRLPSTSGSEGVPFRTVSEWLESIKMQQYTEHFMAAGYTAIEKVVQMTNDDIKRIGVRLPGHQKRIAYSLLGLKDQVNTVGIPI
Procedure: To test the anti-EphA2 activity of these variant scFvs, the binding and internalization of liposomes externally decorated with these Abs was assayed on cell lines expressing EphA2. A rapid high-throughput Chelated Ligand-induced Internalization Assay (CLIA) (Nielsen et al., BMC immunology, 2006, 7:24) was used to screen anti-EphA2-scFv-targeted liposomes for binding and internalization assessment. Two cell lines that express high levels of EphA2 receptors, OVCAR-3 and U-251, were tested, as well as a murine EphA2-expressing mouse cell line, CT-26 (to test whether cross-reactivity to murine EphA2 was retained by the engineered scFvs). Via nickel-binding by each scFv's c-terminal His6 tag, the scFvs were bound to fluorescently labeled liposomes comprising an NTA(Ni) conjugated lipid (Dil5-NTA liposomes).
Dil5-NTA liposomes were prepared as follows. The NTA conjugated lipid, DOD-Tri-NTA, was synthesized as described in Huang et al., Bioconjugate chemistry, 2006, vol. 17, p. 1592-1600. Hydrogenated soy phosphatidylcholine (HSPC), cholesterol, methoxy-PEG(2000)-distearoylphosphatidylethanolamine (PEG-DSPE), DOD-tri-NTA, and a fluorescent lipid dye, Dil5, (ThermoFisher® Invitrogen® Molecular Probes™, cat. # D12370) were combined in a chloroform solution at the molar ratio of 100:66.7:5:0.5:0.3 respectively and the solution evaporated under vacuum to dryness forming a lipid film. The film was hydrated in HEPES-buffered physiological saline (“HBS-6.5”—5 mM HEPES, 144 mM NaCl pH 6.5) at 68° C., the resulting lipid suspension was subjected to several cycles of freezing (dry ice-acetone) and thawing (68C), and extruded through two stacked polycarbonate membranes (Whatman Nuclepore, USA) with the pore size of 200 nm (6 times) and 100 nm (10 times) using Lipex™ thermobarrel extruder (Northern Lipids, Canada). This protocol typically produces unilamellar vesicles with the z-average size of 100-110 nm and polydispersity index less than 0.1. The extruded liposomes were chilled to room temperature, purified by gel-chromatography on a Sephadex® G-75 (GE Healthcare) column eluted with HBS-6.5, and then sterilized by passage through a 0.2-μm filter. The concentration of liposomal phospholipid was then determined after acid digestion using spectrophotometric phosphomolybdate method.

Binder	binding result [5]	other results
B1	–	percent antigen binding on-rate remaining in the scFv-conjugate following thermal stress (Study 1) [1]: 19.8%; percent antigen binding on-rate remaining in the scFv-conjugate following thermal stress (Study 2) [2]: 7.3%; percent scFv-conjugate (not liposome-bound) EphA2 binding on-rate [3]: 113%; percent scFv-conjugated-liposome EphA2 binding on-rate [4]: 133%
B2	–	percent antigen binding on-rate remaining in the scFv-conjugate following thermal stress (Study 2) [2]: 4.6%; percent scFv-conjugate (not liposome-bound) EphA2 binding on-rate [3]: 128%; percent scFv-conjugated-liposome EphA2 binding on-rate [4]: 113%
B3	–	percent antigen binding on-rate remaining in the scFv-conjugate following thermal stress (Study 2) [2]: 5.1%; percent scFv-conjugate (not liposome-bound) EphA2 binding on-rate [3]: 112%; percent scFv-conjugated-liposome EphA2 binding on-rate [4]: 129%
B4	–	percent antigen binding on-rate remaining in the scFv-conjugate following thermal stress (Study 1) [1]: 18.2%; percent antigen binding on-rate remaining in the scFv-conjugate following thermal stress (Study 2) [2]: 9%; percent scFv-conjugate (not liposome-bound) EphA2 binding on-rate [3]: 105%; percent scFv-conjugated-liposome EphA2 binding on-rate [4]: 120%
B5	–	percent antigen binding on-rate remaining in the scFv-conjugate following thermal stress (Study 1) [1]: 25.2%; percent antigen binding on-rate remaining in the scFv-conjugate following thermal stress (Study 2) [2]: 12.2%; percent scFv-conjugate (not liposome-bound) EphA2 binding on-rate [3]: 114%; percent scFv-conjugated-liposome EphA2 binding on-rate [4]: 118%
B6	binds	–
B7	binds	–
B8	binds	–
B9	binds	–
B10	binds	–
B11	binds	–
B12	binds	–
B13	binds	–
B14	binds	–
B15	binds	–
B16	binds	–
B17	binds	–
B18	binds	–
B19	binds	–
B20	binds	–
B21	binds	–
B22	binds	–
B23	binds	–
B24	binds	–
B25	binds	–
B26	binds	–
